From US20130101605A1

What was measured:
[1] = target: RGM of chick tectal membranes (chick) (UniProt Q8JG54); assay: cell-based or functional assay
[2] = target: DCC (Deleted in Colorectal Cancer) expressed on COS-7 cells; assay: RGM-AP binding to transfected COS-7 cells
[3] = target: mouse Neogenin expressed on COS-7 cells (mouse) (UniProt P97798); assay: AP fusion binding to transfected COS-7 cells, saturation and Scatchard analysis
Chain of UniProt P97798 (P97798 37-1492): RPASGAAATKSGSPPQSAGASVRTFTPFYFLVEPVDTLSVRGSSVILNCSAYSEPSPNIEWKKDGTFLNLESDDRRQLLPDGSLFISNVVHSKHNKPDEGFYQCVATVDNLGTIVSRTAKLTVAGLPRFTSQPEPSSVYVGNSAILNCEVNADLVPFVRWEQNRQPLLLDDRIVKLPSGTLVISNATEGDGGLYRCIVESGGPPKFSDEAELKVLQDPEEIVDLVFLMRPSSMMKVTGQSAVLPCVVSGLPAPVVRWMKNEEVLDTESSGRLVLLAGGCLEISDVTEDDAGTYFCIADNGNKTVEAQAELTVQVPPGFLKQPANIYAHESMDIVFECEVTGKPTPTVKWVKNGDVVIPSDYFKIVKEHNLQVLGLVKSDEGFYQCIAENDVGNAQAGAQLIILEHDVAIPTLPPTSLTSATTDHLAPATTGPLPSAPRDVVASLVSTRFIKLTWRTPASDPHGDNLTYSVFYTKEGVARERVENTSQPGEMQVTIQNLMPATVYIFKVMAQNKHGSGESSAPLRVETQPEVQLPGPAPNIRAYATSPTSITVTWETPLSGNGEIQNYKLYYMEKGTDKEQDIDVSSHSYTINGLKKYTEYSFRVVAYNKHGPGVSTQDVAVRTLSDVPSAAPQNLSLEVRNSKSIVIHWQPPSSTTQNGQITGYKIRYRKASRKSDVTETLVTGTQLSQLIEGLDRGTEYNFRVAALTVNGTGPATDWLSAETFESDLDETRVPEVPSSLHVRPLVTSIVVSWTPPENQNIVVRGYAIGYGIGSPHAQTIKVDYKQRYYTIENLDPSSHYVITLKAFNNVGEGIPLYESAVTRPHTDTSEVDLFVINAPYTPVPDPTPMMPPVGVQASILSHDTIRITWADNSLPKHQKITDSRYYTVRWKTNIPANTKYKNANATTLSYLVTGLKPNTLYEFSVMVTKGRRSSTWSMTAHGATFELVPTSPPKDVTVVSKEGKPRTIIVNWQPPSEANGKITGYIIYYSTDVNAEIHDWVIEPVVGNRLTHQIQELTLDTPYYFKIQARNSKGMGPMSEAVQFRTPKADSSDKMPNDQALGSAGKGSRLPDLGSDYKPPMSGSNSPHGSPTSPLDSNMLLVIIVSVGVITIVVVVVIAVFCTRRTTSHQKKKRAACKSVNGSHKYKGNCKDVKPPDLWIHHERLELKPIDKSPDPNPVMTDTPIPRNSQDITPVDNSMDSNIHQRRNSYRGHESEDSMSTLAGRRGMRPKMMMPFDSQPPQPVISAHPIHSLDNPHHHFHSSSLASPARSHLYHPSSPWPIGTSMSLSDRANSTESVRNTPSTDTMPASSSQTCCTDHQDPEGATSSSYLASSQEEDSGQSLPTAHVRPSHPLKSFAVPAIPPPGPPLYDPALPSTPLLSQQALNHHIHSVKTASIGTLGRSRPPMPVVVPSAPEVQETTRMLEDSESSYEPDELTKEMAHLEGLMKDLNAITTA

Chain of UniProt Q8JG54 (Q8JG54 150-404 limits assumed): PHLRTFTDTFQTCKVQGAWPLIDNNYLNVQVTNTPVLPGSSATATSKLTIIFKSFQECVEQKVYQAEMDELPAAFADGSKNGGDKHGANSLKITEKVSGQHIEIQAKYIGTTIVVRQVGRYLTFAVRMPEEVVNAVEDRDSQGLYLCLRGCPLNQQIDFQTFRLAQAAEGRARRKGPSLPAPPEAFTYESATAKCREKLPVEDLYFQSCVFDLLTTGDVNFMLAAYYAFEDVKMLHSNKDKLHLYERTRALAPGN

| Substance | retinotectal stripe assay: blockade of retinal axon stripe preference [1] | fold lower affinity than for Neogenin [2] | Kd [3] |
| --- | --- | --- | --- |
| Soluble ectodomain of chick Neogenin-1 (1-1027) with a carboxyl MycHis tag (from UniProt Q90610 1-1027) (receptor) | 400 nM | – | – |
| chick RGM-AP fusion protein (chick RGM aa 28 to 403 fused to human placental alkaline phosphatase, carboxy-terminal Myc His tag) (from UniProt Q8JG54 28-403; P05187 23-511) (ligand) | – | 50 fold | 230 pM |
